This assay addresses F-ΔC2-WWP2 (UniProt O00308). Kind of assay: fluorescence polarisation.

One may read the Kd as the free concentration of one partner at which half of the binding sites on the other are occupied at equilibrium, for simple one-to-one binding. Low readings indicate tighter binding, high ones weaker binding. Turning to “non-phosphorylated PTEN (n-PTEN) (natural protein)”, the Kd came out at 20 µM.
